Patent publication US20020119944A1

Target: neuropilin-1 on adult rat brain oligodendrocytes (rat) (UniProt Q9QWJ9)

## Sema3A (ligand)
  branching index (BI) of oligodendrocyte process extension (% decrease of BI at 48 h): 81
  half-effect, corresponding to a BI reduction of 50%: 25 ng/mL
